“Also recorded” adds a separate entry of the source. Each block holds one molecule with its values, some of them ahead of it.
Columns and labels:
[1] = system: PCNA; design: method as in PMID 20460379; settings: cited from earlier work
[2] = system: PCNA C-terminal fragment 137–261; settings: yeast two-hybrid; cited from earlier work
Excerpt: MCL-1 has a sequence that meets this minimal PIP-box motif (^221 […] ^228) at the end of the BH3 region in its globular C-terminal domain.

[3] = system: PCNA; settings: co-immunoprecipitation, lysates from co-transfected human embryonic cells and native HeLa cells; cited from earlier work
Excerpt: MCL-1 is a member of the pro-survival B-cell lymphoma-leukemia-2 (Bcl-2) family that preserves mitochondrial integrity during apoptosis. It consists of an intrinsically disordered, 170 residue long N-terminal region and a C-terminal globular domain with three Bcl-2 homology (BH) regions. […] MCL-1 has a sequence that meets this minimal PIP-box motif (^221 […] ^228) at the end of the BH3 region in its globular C-terminal domain.

[4] = target: T1, human PCNA (Homo sapiens, UniProt P12004); experiment: NMR (TROSY) examination of the interaction of PCNA with MCL-1 construct; assay type: binding; settings: 35°C; for binding to PCNA (chemical shift or intensity changes): 50 µM 2H-15N PCNA, 220 µM MCL-1 construct (4.4 equivalents), 10 mM Tris pH 7.4, 250 mM NaCl, 1 mM EDTA, 0.5 mM DTT, 800 MHz
T1 construct: His6 tag with PreScission protease cleavage site (N, cleaved yes); made in house; host or cells: E. coli
Experimental: The human MCL-1 ΔN151−ΔC7 construct cloned in vector pET32a was expressed and purified as described. Briefly, the protein was expressed in E. coli BL21(DE3) cells with a histidine-tag and a Tev protease site at the N-terminus, and was purified by two chromatography steps: immobilized nickel ion affinity and size exclusion.
Unless indicated otherwise, the NMR spectra were recorded on a Bruker AV600 spectrometer equipped with a cryogenically-cooled triple resonance z-gradient probe at 35°C on PCNA samples with or without ligands in PBS pH 7.0. The spectra in Figures S2, S4, S7 and S8 were recorded on a Bruker AV800 spectrometer with a cryogenically-cooled triple resonance z-gradient probe on samples and buffers described in the corresponding legends. TROSY-based 3D HNCO, HN(CA)CO, HNCACB, HN(CO)CACB, and HNCA [21] were recorded for resonance assignment. Spectra were processed with TopSpin (Bruker) or with NMRPipe and analyzed using NMRView. Peak intensities were evaluated by the peak heights measured using CCPNMR [24].
We have monitored the binding of MCL-1 to PCNA by NMR using an MCL-1 construct that lacks most of the disordered N-terminal region but retains the C-terminal domain correctly folded. […] As no significant CSPs were measured, it is not possible to confirm the interaction, but a lower limit for the dissociation constant of the putative complex can be estimated. Assuming an equimolar complex, and that we should be able to detect significant changes when at least 20% of PCNA is bound to MCL-1 [42], a lower limit of the dissociation constant can be calculated. […]
Supplementary file pone.0048390.s007.tif: Figure S7 NMR examination of the interaction of PCNA with MCL-1. ^1H-^15N TROSY spectra of 50 µM uniformly labeled ^2H-^15N PCNA alone (black) or in the presence (red) of 220 µM of the ΔN151−ΔC7 fragment of human MCL-1 (1∶4.4 ratio on a PCNA monomer basis). The spectra were recorded in 10 mM Tris pH 7.4, 250 mM NaCl, 1 mM EDTA, 0.5 mM DTT at 800 MHz and 35°C. […]

T1 sequence (P12004 whole entry): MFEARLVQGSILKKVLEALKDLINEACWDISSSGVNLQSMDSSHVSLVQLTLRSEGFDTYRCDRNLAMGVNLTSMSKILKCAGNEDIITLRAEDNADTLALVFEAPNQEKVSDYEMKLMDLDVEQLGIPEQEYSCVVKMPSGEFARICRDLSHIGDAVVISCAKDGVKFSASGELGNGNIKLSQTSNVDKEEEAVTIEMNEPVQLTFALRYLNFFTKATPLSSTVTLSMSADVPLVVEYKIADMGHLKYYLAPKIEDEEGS

B1: Gadd45α: Growth arrest and DNA damage 45 alpha protein (protein, UniProt P24522 1-165, looked up)
Growth arrest and DNA …: MTLEEFSAGEQKTERMDKVGDALEEVLSKALSQRTITVGVYEAAKLLNVDPDNVVLCLLAADEDDDRDVALQIHFTLIQAFCCENDINILRVSNPGRLAELLLLETDAGPAASEGAEQPPDLHCVLVTNPHSSQWKDPALSQLICFCRESRYMDQWVPVINLPER
direct interaction with PCNA in solution [1]: extremely weak

B2: MCL-1: Myeloid cell leukemia 1 protein, literature interaction with PCNA (protein)
chain: NNTSTDGSLPSTPPPAEEEEDELYRQSLEIISRYLREQATGAKDTKPMGRSGATSRKALETLRRVGDGVQRNHETAFQGMLRKLDIKNEDDVKSLSRVMIHVFSDGVTNWGRIVTLISFGAFVAKHLKTINQESCIEPLAESITDVLVRTKRDWLVKQRGWDGFVEFFHVEDLEGGIRNVLLAFAGVAGVGA
modifications: left off: His tag, N-terminal, kept
interaction with PCNA fragment 137–261 [2]: sufficient for the interaction with MCL-1 | interaction with PCNA [3]: interact with PCNA; also recorded: detected by co-immunoprecipitation

binding to PCNA (chemical shift or intensity changes) ([4]; listed as Bcl-2 domain of MCL-1): did not detect binding | Kd ([4]; assuming equimolar complex and detection at ≥20% PCNA bound, 50 µM PCNA, 220 µM MCL-1 construct, read-out: dissociation constant (lower limit)): > 840 µM
B3: ΔN151−ΔC7: MCL-1 residues 152–343 plus an N-terminal histidine-tag (protein)
chain: B2 chain
modifications: left off: His tag, N-terminal, kept
binding to PCNA (chemical shift or intensity changes) [4]: did not observe any indication of binding
